Data from patent US20240052061A1 (PURINOMIA BIOTECH, published 2024).

Experiments:
[1] = target: T1, human ecto-nucleoside triphosphate diphosphohydrolase-3 (NTPDase3) (human, UniProt O75355 1-529); experiment: flow cytometry on CHO-hENTPD3 cells, 2 hours at 37 °C (FIG. 19)
T1 construct: whole, on cells; O75355 is the entry it names for human NTPDase3; also called hENTPD3; human ENTPD3
T1 sequence (looked up): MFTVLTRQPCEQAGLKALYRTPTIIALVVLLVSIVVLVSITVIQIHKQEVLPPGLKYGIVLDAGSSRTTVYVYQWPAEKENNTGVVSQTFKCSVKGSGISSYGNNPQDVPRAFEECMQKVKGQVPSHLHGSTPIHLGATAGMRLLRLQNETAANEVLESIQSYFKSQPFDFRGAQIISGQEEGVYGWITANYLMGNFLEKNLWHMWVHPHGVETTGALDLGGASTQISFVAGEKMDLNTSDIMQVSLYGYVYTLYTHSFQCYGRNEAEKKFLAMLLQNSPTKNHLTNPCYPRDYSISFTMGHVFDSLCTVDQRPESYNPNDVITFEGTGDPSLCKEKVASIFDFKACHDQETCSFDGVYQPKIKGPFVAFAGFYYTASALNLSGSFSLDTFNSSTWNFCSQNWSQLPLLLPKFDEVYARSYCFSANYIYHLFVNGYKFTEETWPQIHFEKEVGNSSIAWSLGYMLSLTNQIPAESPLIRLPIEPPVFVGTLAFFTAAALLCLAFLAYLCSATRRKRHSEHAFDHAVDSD
Text: (§1) FIG. 19. Affinity of the fully human anti-hENTPD3 monoclonal antibody PBI #30 hIgG1 measured by flow cytometry using CHO-hENTPD3 and COS7-hENTPD3 cells. Generally, FIG. 19 and following are directed to analyses of anti-hENTPD3 monoclonal antibody clones that have been further optimized exemplary (e.g., affinity maturation and isotype switching for PBI #30 and humanization of 8E1 and 38D5) and related detection methods.

[2] = target: T1, human ecto-nucleoside triphosphate …; experiment: flow cytometry on CHO-hENTPD3 cells, 30 minutes at 4 °C (FIG. 1)
Protocol: FIG. 1. Affinity of PBI #30 measured by flow cytometry using human ENTPD3 (hENTPD3) positive CHO cells (stably transfected cells). PBI #30 was serially diluted as indicated (top dose 333 nM) and incubated with CHO-hENTPD3 cells for 30 minutes at 4° C., followed by secondary antibody staining (anti-human IgG (Fc specific), Alexa Fluor® 488) for 30 minutes at 4° C. and flow cytometry analysis.

[3] = target: T1, human ecto-nucleoside triphosphate …; experiment: flow cytometry on HEK293T-hENTPD3 cells, 30 minutes at 4 °C (FIG. 3)
Text: FIG. 3. Affinity of PBI #30 measured by flow cytometry using hENTPD3 positive HEK293T cells (stably transfected cells).

[4] = target: T1, human ecto-nucleoside triphosphate …; experiment: cell-based or functional assay
[5] = target: T1, human ecto-nucleoside triphosphate …; experiment: flow cytometry on COS7-hENTPD3 cells, 2 hours at 37 °C (FIG. 19)
Text: as §1

[6] = target: T1, human ecto-nucleoside triphosphate …; experiment: flow cytometry on RT4 bladder cancer cells (endogenous hENTPD3), 30 minutes at 4 °C (FIG. 4)
Text: FIG. 4. Affinity of PBI #30 measured by flow cytometry using RT4 bladder cancer cells that endogenously express hENTPD3.

[7] = target: T1, human ecto-nucleoside triphosphate …; experiment: flow cytometry on COS7-hENTPD3 cells, 30 minutes at 4 °C (FIG. 2)
Text: FIG. 2. Affinity of PBI #30 measured by flow cytometry using hENTPD3 positive COS-7 cells (stably transfected cells).

[8] = target: T1, human ecto-nucleoside triphosphate …; experiment: cell-based or functional assay; remark: listed apart in the source

Kd [1]: 2.96 nM
Kd [2]: 5.53 nM
Kd [3]: 8.4 nM
ADCC EC50 (µg/mL), NFAT luciferase reporter Jurkat/hCD16a-158V [4]: 1.44 µg/mL
Enzyme Activity Inhibition Capacity: % of Maximal Inhibition [4]: 76%
Enzyme Activity Inhibition Capacity: EC50 [4]: 2.51 µg/mL
Kd [5]: 1.82 nM
Kd [6]: 10.1 nM
Kd [7]: 11.9 nM
ADCC EC50, NFAT luciferase reporter Jurkat/hCD16a-158V [8]: 0.092 µg/mL
EC50 of hENTPD3 enzyme activity inhibition, CHO-hENTPD3 cells, antibody 30 minutes [8]: 17.3 µg/mL
B1: PBI #30 hIgG1 (antibody, V domains shown)
VH: QVQLQESGGGLIQPGGSLRLSCAASGFTSSSSDYAMSWVRQAPGKGLEWVSSISGSGGSTYYADSVKGRFTISRDNSKNTLYVQMTSLTAEDTAVYYCAKVVGYSMYDYYYHYALDVWGQGTTVTVSS
VL: QPVLTQPPSASGTPGQRVTISCSGSSSNIGSNTVNWYQQLPGTAPKLLIYSNNQRPSGVPDRFSGSKSGTSASLTISGLKTEDEAGYYCQSYDTSNVVFGGGTKVTVLG
notes: Fully human IgG1; also called clone PBI #30; original clone PBI #30 hIgG1
